{"source": "paper PMC4718643", "about": "“Characterization of a Mannose-6-Phosphate Isomerase from Bacillus amyloliquefaciens and Its Application in Fructose-6-Phosphate Production” (PLoS ONE, 2015)", "proteins": {"B1": {"name": "BsM6PI (Bacillus subtilis subsp. subtilis str. 168; K96Q) (protein)", "chain": "MTQSPIFLTPVFKEKIWGGTALRDRFGYSIPSESTGECWAISAHPKGPSTVANGPYKGKTLIELWEEHREVFGGVEGDRFPLLTKLLDVKEDTSIQVHPDDYYAGENEEGELGKTECWYIIDCKENAEIIYGHTARSKTELVTMINSGDWEGLLRRIKIKPGDFYYVPSGTLHALCKGALVLETQQNSDATYRVYDYDRLDSNGSPRELHFAKAVNAATVPHVDGYIDESTESRKGITIKTFVQGEYFSVYKWDINGEAEMAQDESFLICSVIEGSGLLKYEDKTCPLKKGDHFILPAQMPDFTIKGTCTLIVSHI", "notes": "full length, N-terminal His6 fusion (pET28a, BamHI/SalI), E. coli BL21(DE3), Ni-NTA; primers encode N-terminus MTQS and C-terminus IVSHI"}}, "substrate": "O=P(O)(O)OC[C@H]1OC(O)[C@@H](O)[C@@H](O)[C@@H]1O", "assay": "purified protein", "assay_type": "biochemical, Bacillus amyloliquefaciens", "conditions": "0.5 mM Co2+ (general method), phosphate pH 7.5, 50 °C", "data": [{"protein": "B1", "values": [{"measurement": "Km", "result": 12, "unit": "mM"}]}]}
